The values below are quoted from earlier work in PMC8438204, “Unraveling the Thermodynamics of Ultra-tight Binding of Intrinsically Disordered Proteins” (Frontiers in Molecular Biosciences, 2021).

Data set [1] concerns E7-Im7 (colicin DNase - immunity protein). The conditions noted are these: ref Keeble et al., 2006. The procedure:
Supplement DataSheet1.docx, table 1: Table S1. Thermodynamic parameters and structural properties of the complexes. All parameters are reported at T = 25°C. | column: Thermodynamic parameters

The next data set relates to barnase-barstar. The conditions noted are these: ref Frisch et al., 1997. As for the experimental part:
Supplement DataSheet1.docx, table 1: Table S1. Thermodynamic parameters and structural properties of the complexes. All parameters are reported at T = 25°C. | column: Thermodynamic parameters || Next, we examine how the binding energetics of HigA2_3-23-HigB2 compares to other ultra-high affinity complexes formed by globular proteins. These include well-known examples such as the barnase-barstar and the complexes between various immunity proteins and colicin-DNases ([Hartley, 1989]; [Keeble et al., 2006]). The overall Gibbs free energies of globular high affinity complexes (ΔG assoc about −19 kcal/mol) are approximately 3 kcal/mol more negative compared to HigA2_3–23-HigB2. Since no significant conformational changes occur upon formation of globular high affinity complexes in any of th ... || Nonetheless, a handful of examples of IDP binders with ultra-high affinity have been characterized to date.

In the next data set the test system is CcdB2. The conditions noted are these: ref Drobnak et al., 2013. The procedure: Supplement DataSheet1.docx, table 1: Table S1. Thermodynamic parameters and structural properties of the complexes. All parameters are reported at T = 25°C. | column: Thermodynamic parameters || Nonetheless, a handful of examples of IDP binders with ultra-high affinity have been characterized to date. […] Complexes are ordered according to the degree of energy optimization as estimated by the ΔH bind/ASAint values. For the HigA2_3-23-HigB2 complex the degree of energy optimization is similar to one observed for the pairs of globular high affinity binders (Supplementary Table S1, Figure 3A). […] The high affinit ...

B1: E7-Im7 (protein, UniProt Q47112 1-576; Q03708 1-87, looked up)
Colicin-E7: MSGGDGRGHNSGAHNTGGNINGGPTGLGGNGGASDGSGWSSENNPWGGGSGSGVHWGGGSGHGNGGGNSNSGGGSNSSVAAPMAFGFPALAAPGAGTLGISVSGEALSAAIADIFAALKGPFKFSAWGIALYGILPSEIAKDDPNMMSKIVTSLPAETVTNVQVSTLPLDQATVSVTKRVTDVVKDTRQHIAVVAGVPMSVPVVNAKPTRTPGVFHASFPGVPSLTVSTVKGLPVSTTLPRGITEDKGRTAVPAGFTFGGGSHEAVIRFPKESGQKPVYVSVTDVLTPAQVKQRQDEEKRLQQEWNDAHPVEVAERNYEQARAELNQANKDVARNQERQAKAVQVYNSRKSELDAANKTLADAKAEIKQFERFAREPMAAGHRMWQMAGLKAQRAQTDVNNKKAAFDAAAKEKSDADVALSSALERRKQKENKEKDAKAKLDKESKRNKPGKATGKGKPVNNKWLNNAGKDLGSPVPDRIANKLRDKEFKSFDDFRKKFWEEVSKDPELSKQFSRNNNDRMKVGKAPKTRTQDVSGKRTSFELHHEKPISQNGGVYDMDNISVVTPKRHIDIHRGK
Colicin-E7 immunity protein: MELKNSISDYTEAEFVQLLKEIEKENVAATDDVLDVLLEHFVKITEHPDGTDLIYYPSDNRDDSPEGIVKEIKEWRAANGKPGFKQG
Consider B1, for which, in data set [1] (25°C), the “-TΔS” value was 10.5 kcal/mol, the ΔG is -19.8 kcal/mol and the ΔH was -30.3 ± 0.8 kcal/mol. The ΔCp in data set [1] is -0.69 kcal mol^-1 K^-1.

B2: barnase-barstar (protein, UniProt P00648 48-157; P11540 2-90, looked up)
Ribonuclease: AQVINTFDGVADYLQTYHKLPDNYITKSEAQALGWVASKGNLADVAPGKSIGGDIFSNREGKLPGKSGRTWREADINYTSGFRNSDRILYSSDWLIYKTTDHYQTFTKIR
Barstar: KKAVINGEQIRSISDLHQTLKKELALPEYYGENLDALWDCLTGWVEYPLVLEWRQFEQSKQLTENGAESVLQVFREAKAEGCDITIILS
In the case of B2, in the data set on barnase-barstar (25°C), the “-TΔS” value is -0.1 kcal/mol and the ΔG was -19 kcal/mol. Besides, in the data set on barnase-barstar, the ΔCp was -0.36 ± 0.02 kcal mol^-1 K^-1.

B3: CcdA (protein, UniProt P62552 1-72, looked up)
Antitoxin CcdA: MKQRITVTVDSDSYQLLKAYDVNISGLVSTTMQNEARRLRAERWKAENQEGMAEVARFIEMNGSFADENRDW
One may read the Kd as the equilibrium constant for the complex coming apart. For B3, in the data set with CcdB2 (25°C), the “ΔG (association)” value was -15.6 kcal/mol. Besides, the Kd at CcdB2 was 4 pM.
